Results: patent US20250074964A1 (Ambio, Inc., priority 2023, published 2025)
Starred links: 1 amine or outer side, 2 acyl side, 3 side chain; linkers in the order of their positions; H or OH if unused. Non-standard residues stand in square brackets, D forms with d. Residues, ends and D or L forms follow the SMILES beside them. Groups on a side chain read outwards from the residue. No end group written: not given here. *: point of attachment. (CH2)18‑OH = polymethylene chain of 18 CH2 units ending in OH (m = 18), OCCCCCCCCCCCCCCCCCC*; C18 diacid = O=C(O)CCCCCCCCCCCCCCCCC(=O)*; γGlu = O=C(O)[C@H](CCC(=O)[*:2])N[*:1]; Dap = NC[C@H](N)C(=O)O; AEEA = NCCOCCOCC(=O)O; Aib = CC(C)(N)C(=O)O

Columns and labels:
[1] = target: human GLP-1R (constitutively expressed on recombinant HEK293 CRE-luciferase reporter cells) (human) (UniProt P43220); assay: cell-based or functional assay
human GLP-1R (constitutively expressed on recombinant HEK293 CRE-luciferase reporter cells) (human), sequence (P43220 24-463): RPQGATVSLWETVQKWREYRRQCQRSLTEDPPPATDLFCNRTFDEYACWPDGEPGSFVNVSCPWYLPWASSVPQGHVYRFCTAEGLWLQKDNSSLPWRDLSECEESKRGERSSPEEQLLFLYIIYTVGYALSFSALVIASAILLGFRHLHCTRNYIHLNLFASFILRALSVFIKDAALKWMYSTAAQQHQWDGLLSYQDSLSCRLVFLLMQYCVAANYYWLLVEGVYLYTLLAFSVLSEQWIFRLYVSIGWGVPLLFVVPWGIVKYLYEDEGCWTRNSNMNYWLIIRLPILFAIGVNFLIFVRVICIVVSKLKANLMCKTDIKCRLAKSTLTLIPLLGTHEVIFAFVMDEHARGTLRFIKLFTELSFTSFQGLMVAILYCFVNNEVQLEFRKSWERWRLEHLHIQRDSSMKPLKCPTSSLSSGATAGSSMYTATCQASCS

GLP-1R = target: T1, GLP-1R (Homo sapiens, UniProt P43220); assay: Cell-Based Tag-Lite GLP-1R Receptor Binding FRET Assay
T1 construct: purchased
T1 sequence (P43220 24-463): as above

[2] = target: GLP-1R on Tag-Lite Glucagon GLP-1 labeled cells; assay: Tag-Lite GLP-1R binding FRET competition assay on cells, with 2% HSA; competitor: red agonist
GLP-1R on Tag-Lite Glucagon GLP-1 labeled cells, sequence (P43220 24-463): as above

[3] = target: human GLP-1R (constitutively expressed on recombinant HEK293 CRE-luciferase reporter cells) (human, UniProt P43220 24-463); assay: cell-based or functional assay
[4] = target: GLP-1R on Tag-Lite Glucagon GLP-1 labeled cells; assay: Tag-Lite GLP-1R binding FRET competition assay on cells, absence of HSA; competitor: red agonist

Molecule	biological IC50, CRE-luciferase reporter assay [1]	IC50 (GLP-1R; absence of HSA)	IC50 (GLP-1R; with 2% HSA)	IC50 [2]	biological IC50, CRE-luciferase reporter assay [3]	IC50 [4]
semaglutide (peptide)	0.4 nM					
CC[C@H](C)[C@H](NC(=O)[C@H](Cc1ccccc1)NC(=O)[C@H](CCC(=O)O)NC(=O)[C@H](CCCCNC(=O)COCCOCCNC(=O)COCCOCCNC(=O)CC[C@H](NC(=O)CCCCCCCCCCCCCCCCC(=O)O)C(=O)O)NC(=O)[C@H](C)NC(=O)[C@H](C)NC(=O)[C@H](CCC(N)=O)NC(=O)CNC(=O)[C@H](CCC(=O)O)NC(=O)C(C)(C)NC(=O)[C@H](Cc1ccc(O)cc1)NC(=O)[C@H](CO)NC(=O)[C@H](CO)NC(=O)[C@@H](NC(=O)[C@H](CC(=O)O)NC(=O)[C@H](CO)NC(=O)[C@@H](NC(=O)[C@H](Cc1ccccc1)NC(=O)[C@@H](NC(=O)CNC(=O)[C@H](CCC(=O)O)NC(=O)C(C)(C)NC(=O)[C@@H](N)Cc1c[nH]cn1)[C@@H](C)O)[C@@H](C)O)C(C)C)C(=O)N[C@@H](C)C(=O)N[C@@H](Cc1c[nH]c2ccccc12)C(=O)N[C@@H](CC(C)C)C(=O)N[C@H](C(=O)NCC(=O)NCC(=O)N1CCC[C@H]1C(=O)N[C@@H](CO)C(=O)N[C@@H](CO)C(=O)NCC(=O)N[C@@H](C)C(=O)N1CCC[C@H]1C(=O)N1CCC[C@H]1C(=O)N1CCC[C@H]1C(=O)N[C@@H](CO)C(N)=O)C(C)C [APi3713] (H-H[Aib]EGTFTSDVSSY[Aib]EGQAAK([AEEA-AEEA-γGlu-C18 diacid])EFIAWLVGGPSSGAPPPS-NH2; N-terminus assumed)		1.59 µM	95.9 µM			
liraglutide (peptide)	30 pM					
Y[Aib]EGTFTSDVSS[Aib]LEGQAAK([AEEA-AEEA-γGlu-(CH2)18‑OH])EFIAWLVRGRG [APi3709]				129 µM	~5.4 nM	2.48 µM
HXEGTFTSDVSSXLEGQAAKEFIAWLVRGRG (GLP-1 numbering (first residue is Xaa7): Aib-ψ[CH2NH] at Xaa8 (reduced peptide bond between Aib and the next residue); Aib at Xaa19; ε-amino group of Lys26 substituted with AEEA-AEEA-γ-Glu-(CH2)m-OH, m is 18) [APi3710]				809 µM		4.08 µM
HXEGTFTSDVSSXLEGQAAKEFIAWLVRGRG (GLP-1 numbering (first residue is Xaa7): Aib at Xaa8 and Xaa19; ε-amino group of Lys26 substituted with AEEA-AEEA-γ-Glu-(CH2)m-OH, m is 18) [APi3711]				77.8 µM	~0.66 nM	0.898 µM
H[Aib]EGTFTSDVSS[Aib]LEGQAAK([AEEA-AEEA-γGlu-(CH2)18‑OH])EFIAWLVRG[Dap]G [APi3712]				179 µM	~0.66 nM	1.7 µM
H[Aib]EGTFTSDVSSY[Aib]EGQAAK([AEEA-AEEA-γGlu-(CH2)18‑OH])EFIAWLVGGPSSGAPPPS-NH2 [APi3713]				95.9 µM	~0.57 nM	1.59 µM
